The text below walks through data of US20130210023, “NUCLEIC ACID […] AGAINST PLASMODIUM LACTATE DEHYDROGENASE AND HISTIDINE-RICH PROTEIN II AND USES […] FOR MALARIA DIAGNOSIS” (THE UNIVERSITY OF HONG KONG, published 2013).

For data set [1], the target named is T1, Plasmodium falciparum lactate dehydrogenase (PfLDH) (Plasmodium falciparum 3D7, UniProt Q76NM3 Q76NM3:1-316). The data set is described as follows: ITC; nanomolar, similar Kd and stoichiometry to 2009s; same buffer, 25 C. As to conditions: chain copies: 4 stated (tetramer in crystal).
For data set [2], the target named is T1, Plasmodium falciparum lactate …. The data set is described as follows: structure; crystal structure, two aptamers per PfLDH tetramer; contacts residues 102-108, Asp53, Ile54 (A) and Lys62, His250 (B). As to conditions: chain copies: 4 stated (tetramer in crystal); last 8 nt disordered; not G4.
Data set [3] concerns the target human lactate dehydrogenase A1 (hLDHA1) (Homo sapiens, UniProt P00338 P00338:1-332). The data set is described as follows: ITC; no binding by ITC, EMSA and SPR; no AuNP color change. (In general: ITC needs no label: the signal is the heat of the interaction.)
The target in data set [4] is human lactate dehydrogenase B (hLDHB) (Homo sapiens, UniProt P07195 P07195:2-334). The data set is described as above. To be noted: tags: His tag (pET-28a, HisTrap purified); chain copies: 4; last 8 nt disordered; not G4.
Sequence of human lactate dehydrogenase B (hLDHB) (P07195 2-334, one chain of several): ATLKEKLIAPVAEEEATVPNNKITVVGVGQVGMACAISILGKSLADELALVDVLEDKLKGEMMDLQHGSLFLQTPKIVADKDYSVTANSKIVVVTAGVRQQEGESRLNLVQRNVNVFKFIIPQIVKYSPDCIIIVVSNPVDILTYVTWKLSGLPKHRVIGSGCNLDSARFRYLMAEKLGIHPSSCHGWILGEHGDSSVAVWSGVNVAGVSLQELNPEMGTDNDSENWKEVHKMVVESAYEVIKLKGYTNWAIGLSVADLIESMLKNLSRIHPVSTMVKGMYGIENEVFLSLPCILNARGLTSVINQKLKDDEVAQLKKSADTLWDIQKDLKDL
For data set [5], the target named is T1, Plasmodium falciparum lactate …. The data set is described as follows: ITC; nanomolar Kd, value only in figure; N=0.152; 25 mM Tris-HCl pH 7.5, 0.1 M NaCl, 20 mM imidazole, 25 C. As to conditions: chain copies: 4 stated (tetramer in crystal).
For data set [6] the target is unchanged. The data set is described as follows: ITC; nanomolar Kd, value only in figure; N=0.177; 25 mM Tris-HCl pH 7.5, 0.1 M NaCl, 20 mM imidazole, 25 C. To be noted: chain copies: 4 stated (tetramer in crystal).
Data set [7] shares this target. The data set is described as follows: ITC; nanomolar Kd, value only in figure; N=0.451; 25 mM Tris-HCl pH 7.5, 0.1 M NaCl, 20 mM imidazole, 25 C. As to conditions: chain copies: 4 stated (tetramer in crystal).

B1: 2009 (2009s with 18-mer flanks on both ends) (ssDNA)
DNA: CGTACGGTCGACGCTAGCTAGGTGGCCAGAAGGTAGAACCATAGTGGTCTGGTACACGTGGAGCTCGGATCC
In the case of B1, the binding result in data set [1] is recorded as “binds”. With CTGGGCGGTAGAACCATAGTGACCCAGCCGTCTAC (ssDNA) [2008s], the binding result was “binds” in data set [2], “no binding” in data set [3] and “no binding” in data set [4]. As for ACGCGAGCAGGTGGTAGAATCATAATGGCCTGATC (ssDNA) [2004s], the binding result in data set [5] is recorded as “binds”. AGAATGGCGGGAGAGCCTTAGCGACCATTCGTAC (ssDNA) [2021s]: the binding result in data set [6] is on record as “binds”. Take TAGGTGGCCAGAAGGTAGAACCATAGTGGTCTGGTA (ssDNA) [2009s]: the binding result in data set [7] is listed as “binds”.
